Measured values from patent US20160002357A1 (Pfizer, published 2016).
Substitutions are numbered along the chain they refer to.

B1: anti-P-cadherin scFv 153 alanine-mutant L1.1-Ala (scFv, V domains shown)
VH: EVQLVQSGAEVKKPGASVKVSCKASGYTFTSYGISWVRQAPGQGLEWMGWISAYNGNTNYAQKLQGRVTMTTDTSTSTAYMELRSLRSDDTAVYYCATIDTANAFGIWGQGTMVTVSS
VL: QSVLTQPPSVSAAPGQKVTISCAGSSSNIGNNYVSWYQQLPGTAPKLLIYDNNKRPSGIPDRFSGSKSGTSATLGITGLQTGDEADYYCGTWDSSLSGVVFGGGTKLTVL
notes: scFv on phage
B2: anti-P-cadherin scFv 153 alanine-mutant L2.5-Ala (scFv, V domains shown)
VH: B1 VH
VL: B1 VL with A23S, R55A
notes: scFv on phage
B3: anti-P-cadherin scFv 153 alanine-mutant L1.10-Ala (scFv, V domains shown)
VH: B1 VH
VL: B1 VL with A23S, N32A
notes: scFv on phage
B4: anti-P-cadherin scFv 153 alanine-mutant L1.8-Ala (scFv, V domains shown)
VH: B1 VH
VL: B1 VL with A23S, G30A
notes: scFv on phage
B5: anti-P-cadherin scFv 153 alanine-mutant L2.3-Ala (scFv, V domains shown)
VH: B1 VH
VL: B1 VL with A23S, N53A
notes: scFv on phage
B6: anti-P-cadherin scFv 153 alanine-mutant L1.12-Ala (scFv, V domains shown)
VH: B1 VH
VL: B1 VL with A23S, V34A
notes: scFv on phage
B7: anti-P-cadherin scFv 153 alanine-mutant L1.4-Ala (scFv, V domains shown)
VH: B1 VH
VL: B1 VL with A23S, S26A
notes: scFv on phage
B8: anti-P-cadherin scFv 153 alanine-mutant L3.4-Ala (scFv, V domains shown)
VH: B1 VH
VL: B1 VL with A23S, D93A
notes: scFv on phage
B9: anti-P-cadherin scFv 153 alanine-mutant L1.11-Ala (scFv, V domains shown)
VH: B1 VH
VL: B1 VL with A23S, Y33A
notes: scFv on phage
B10: anti-P-cadherin scFv 153 alanine-mutant L3.3-Ala (scFv, V domains shown)
VH: B1 VH
VL: B1 VL with A23S, W92A
notes: scFv on phage
B11: anti-P-cadherin scFv 153 alanine-mutant L3.2-Ala (scFv, V domains shown)
VH: B1 VH
VL: B1 VL with A23S, T91A
notes: scFv on phage
B12: anti-P-cadherin scFv 153 alanine-mutant L2.4-Ala (scFv, V domains shown)
VH: B1 VH
VL: B1 VL with A23S, K54A
notes: scFv on phage
B13: anti-P-cadherin scFv 153 alanine-mutant L1.9-Ala (scFv, V domains shown)
VH: B1 VH
VL: B1 VL with A23S, N31A
notes: scFv on phage
B14: anti-P-cadherin scFv 153 alanine-mutant L1.3-Ala (scFv, V domains shown)
VH: B1 VH
VL: B1 VL with A23S, S25A
notes: scFv on phage
B15: anti-P-cadherin scFv 153 alanine-mutant L3.5-Ala (scFv, V domains shown)
VH: B1 VH
VL: B1 VL with A23S, S94A
notes: scFv on phage
B16: anti-P-cadherin scFv 153 alanine-mutant L3.10-Ala (scFv, V domains shown)
VH: B1 VH
VL: B1 VL with A23S, V99A
notes: scFv on phage
B17: anti-P-cadherin scFv 153 alanine-mutant L1.7-Ala (scFv, V domains shown)
VH: B1 VH
VL: B1 VL with A23S, I29A
notes: scFv on phage
B18: anti-P-cadherin scFv 153 alanine-mutant L1.6-Ala (scFv, V domains shown)
VH: B1 VH
VL: B1 VL with A23S, N28A
notes: scFv on phage
B19: anti-P-cadherin scFv 153 alanine-mutant L3.8-Ala (scFv, V domains shown)
VH: B1 VH
VL: B1 VL with A23S, S97A
notes: scFv on phage
B20: anti-P-cadherin scFv 153 alanine-mutant L3.1-Ala (scFv, V domains shown)
VH: B1 VH
VL: B1 VL with A23S, G90A
notes: scFv on phage
B21: anti-P-cadherin scFv 153 alanine-mutant L2.7-Ala (scFv, V domains shown)
VH: B1 VH
VL: B1 VL with A23S, S57A
notes: scFv on phage
B22: anti-P-cadherin scFv 153 alanine-mutant L2.1-Ala (scFv, V domains shown)
VH: B1 VH
VL: B1 VL with A23S, D51A
notes: scFv on phage
B23: anti-P-cadherin scFv 153 alanine-mutant L2.6-Ala (scFv, V domains shown)
VH: B1 VH
VL: B1 VL with A23S, P56A
notes: scFv on phage
B24: anti-P-cadherin scFv 153 alanine-mutant L1.2-Ala (scFv, V domains shown)
VH: B1 VH
VL: B1 VL with A23S, G24A
notes: scFv on phage
B25: anti-P-cadherin scFv 153 alanine-mutant L1.5-Ala (scFv, V domains shown)
VH: B1 VH
VL: B1 VL with A23S, S27A
notes: scFv on phage
B26: anti-P-cadherin scFv 153 alanine-mutant L3.9-Ala (scFv, V domains shown)
VH: B1 VH
VL: B1 VL with A23S, G98A
notes: scFv on phage
B27: anti-P-cadherin scFv 153 alanine-mutant L2.2-Ala (scFv, V domains shown)
VH: B1 VH
VL: B1 VL with A23S, N52A
notes: scFv on phage
B28: anti-P-cadherin scFv 153 alanine-mutant L1.13-Ala (scFv, V domains shown)
VH: B1 VH
VL: B1 VL with A23S, S35A
notes: scFv on phage
B29: anti-P-cadherin scFv 153 alanine-mutant L3.6-Ala (scFv, V domains shown)
VH: B1 VH
VL: B1 VL with A23S, S95A
notes: scFv on phage
B30: anti-P-cadherin scFv 153 alanine-mutant L3.7-Ala (scFv, V domains shown)
VH: B1 VH
VL: B1 VL with A23S, L96A
notes: scFv on phage

What follows are binders tested against T1, P-cadherin-ECD1-3-Fc protein (human P-cadherin-Fc) (human, UniProt P22223 108-440) (assay: phage scFv ELISA, coated P-cadherin-ECD1-3-Fc).
T1 construct: Construct was expressed with signal peptide and pro-peptide (PACE co-transfected to process the propeptide); not shown: hinge and CH2 and CH3 domains of human IgG1
Description: ScFvs may be expressed on the surface of a phage particle. To prepare phage expressing scFv on their surface, 96-deep well plates containing 1 mL 2× TY media with 2% glucose/100 μg/mL ampicillin were inoculated with 0.5-1 μL from thawed glycerol stocks (one clone per well) using the QPix™2 Colony picker (Molecular Devices, Sunnyvale Calif.) and grown at 37° C. (900 rpm) for ˜4 hours. Next, 5 μL of a 1:29 dilution of helper phage (8.3×10¹³ pfu) was added and the plates and incubated for a further 30 minutes at 37° C. with no shaking then 1 hour at 300 rpm. Plates were centrifuged and the media was replaced with a kanamycin/non-glucose containing media (2× TY with 50 μg/mL kanamycin and 100 μg/mL ampicillin). Plates were grown overnight at 25° C. (900 rpm), and phage were harvested in the supernatant following centrifugation.
P-cadherin-ECD1-3-Fc protein or negative control protein was coated overnight at 4° C. on 96-well Nunc Maxisorp® plates (Thermo Fisher Scientific, Madison, Conn.) at a concentration of 2 μg/mL in PBS+Ca²⁺ and Mg²⁺. Plates were washed three times using PBS+Ca²⁺ and Mg²⁺ and blocked for 1 hour at room temperature in 3% milk/PBS+Ca²⁺ and Mg²⁺. Phage samples prepared as described above were added to the blocked plates for 1 hour at room temperature. Plates were washed three times with PBS+Ca²⁺ and Mg²⁺ prior to the addition of secondary antibody (anti M13-HRP 1:2000, GE Healthcare, Piscataway, N.J.). Plates were incubated for a further 1 hour at room temperature and washed six times with PBS+Ca²⁺ and Mg²⁺. Signal was developed using TMB (SurModics, Eden Prairie, Minn.), the reaction stopped with H₂SO₄ and the absorbance read at 450 nm on an EnVision® plate reader (Perkin Elmer, Waltham, Mass.).

T1 sequence (P22223 108-440): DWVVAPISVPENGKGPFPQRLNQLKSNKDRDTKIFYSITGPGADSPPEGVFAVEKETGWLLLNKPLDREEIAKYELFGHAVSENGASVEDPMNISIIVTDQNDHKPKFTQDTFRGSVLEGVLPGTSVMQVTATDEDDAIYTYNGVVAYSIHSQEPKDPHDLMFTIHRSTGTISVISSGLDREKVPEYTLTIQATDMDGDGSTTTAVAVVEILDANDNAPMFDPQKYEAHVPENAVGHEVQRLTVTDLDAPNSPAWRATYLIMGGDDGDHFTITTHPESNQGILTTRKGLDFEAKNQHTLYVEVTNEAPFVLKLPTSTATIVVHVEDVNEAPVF

| Binder | % of binding of Clone #153 to human P-cadherin-Fc | Human P-cadherin-Fc binding (OD450) | Z Score |
| --- | --- | --- | --- |
| B1 | 166% | 2.19 OD450 | 1.4 |
| B2 | 170% | 2.25 OD450 | 1.5 |
| B3 | 137% | 1.81 OD450 | 0.8 |
| B4 | 75% | 1 OD450 | -0.5 |
| B5 | 74% | 0.98 OD450 | -0.5 |
| B6 | 173% | 2.29 OD450 | 1.6 |
| B7 | 175% | 2.31 OD450 | 1.6 |
| B8 | 70% | 0.92 OD450 | -0.6 |
| B9 | 139% | 1.84 OD450 | 0.8 |
| B10 | 14% | 0.18 OD450 | -1.8 |
| B11 | 61% | 0.81 OD450 | -0.8 |
| B12 | 161% | 2.13 OD450 | 1.3 |
| B13 | 129% | 1.71 OD450 | 0.6 |
| B14 | 165% | 2.19 OD450 | 1.4 |
| B15 | 163% | 2.16 OD450 | 1.3 |
| B16 | 141% | 1.86 OD450 | 0.9 |
| B17 | 108% | 1.42 OD450 | 0.2 |
| B18 | 88% | 1.16 OD450 | -0.3 |
| B19 | 173% | 2.28 OD450 | 1.5 |
| B20 | 153% | 2.02 OD450 | 1.1 |
| B21 | 163% | 2.16 OD450 | 1.3 |
| B22 | 110% | 1.45 OD450 | 0.2 |
| B23 | 172% | 2.28 OD450 | 1.5 |
| B24 | 97% | 1.28 OD450 | -0.1 |
| B25 | 129% | 1.7 OD450 | 0.6 |
| B26 | 166% | 2.19 OD450 | 1.4 |
| B27 | 102% | 1.35 OD450 | 0 |
| B28 | 171% | 2.26 OD450 | 1.5 |
| B29 | 173% | 2.29 OD450 | 1.5 |
| B30 | 173% | 2.29 OD450 | 1.6 |
